{
  "source": "paper PMC5832979",
  "about": "“Ligand complex structures of L‐amino acid oxidase/monooxygenase from Pseudomonas sp. AIU 813 and its conformational change” (FEBS Open Bio, 2018)",
  "molecules": {"B1": {"name": "L‐Amino acid oxidase/monooxygenase from Pseudomonas sp. AIU 813 (enzyme)", "chain": "MNKNNRHPADGKKPITIFGPDFPFAFDDWLEHPAGLGSIPAARHGEEVAIVGAGIAGLVAAYELMKLGLKPVVYEASKMGGRLRSQAFNGTDGIIAELGGMRFPVSSTAFYHYVDKLGLETKPFPNPLTPASRSTVIDLEGQTYYAEKAADLPALFQEVTDAWADALESGARFGDIQQAIRDRDVPRLKELWNTLVPLWDDRTFYDFVATSKAFAKLSFQHREVFGQVGFGTGGWDSDFPNSMLEIFRVVMTNCDDHQHLVVGGVEQVPQGIWRHVPERCAHWPEGTSLSSLHGGAPRTGVKRIARASDGRLAVTDNWGDCRHYAAVLTTCQSWLLTTQIDCEESLFSQKMWMALDRTRYMQSSKTFVMVDRPFWKDKDPETGRDLMSMTLTDRLTRGTYLFDNGDDKPGVICLSYAWMSDALKMLPHPVEKRVQLALDALKKIYPKTDIAGHIIGDPITISWEADPHFLGAFKGALPGHYRYNQRMYAHFMQAQMPVEQRGIFIAGDDVSWTPAWVEGAVQTSLNAVWGIMNHFGGKTHADNPGPGDVFDEIGQIALAD", "notes": "L-amino acid oxidase/monooxygenase (L-AAO/MOG), Pseudomonas sp; AIU 813; FAD-dependent; expression plasmid pET15b-laao/mog; Carries FAD; The biological dimer is chains A-C and B-D of the crystal; also called L‐AAO/MOG; wild‐type enzyme"}},
  "key": {"L-AAO/MOG [1]": {"target": "T1, L-AAO/MOG (Pseudomonas sp. AIU 813, UniProt W6JQJ6)", "T1 construct": "gene laao; N-terminally His-tagged, pET15b-laao/mog, expressed in E. coli; homodimer with FAD", "T1 sequence (W6JQJ6 1-560)": "B1 chain", "test": "X-ray crystal structure, […] Å", "assay_type": "binding", "details": "bound cofactor; redox state mixed or uncertain; L-Lys complex"}, "L-AAO/MOG [2]": {"target": "T1, L-AAO/MOG", "test": "X-ray crystal structure, soaking, […] Å", "assay_type": "binding", "details": "active site, also second site; 20 mM soak; density relatively ambiguous; modelled as unreacted substrate"}, "L-AAO/MOG [3]": {"target": "T1, L-AAO/MOG", "test": "X-ray crystal structure, soaking, […] Å", "assay_type": "binding", "details": "active site, also second site at dimer interface; 10 mM soak; modelled as unreacted substrate, redox state uncertain"}, "L-AAO/MOG [4]": {"target": "T1, L-AAO/MOG", "test": "X-ray crystal structure, soaking, […] Å", "assay_type": "binding", "details": "active site, also second site; 20 mM soak; density relatively ambiguous; modelled as unreacted substrate", "remark": "listed apart in the source"}, "N=C(N)NCCC[C@H](N)C(=O)O": {"tested_on": "T2, N=C(N)NCCC[C@H](N)C(=O)O", "T2 construct": "N-terminally His-tagged, pET15b-laao/mog, expressed in E. coli; homodimer with FAD", "test": "purified protein", "assay_type": "biochemical, Pseudomonas sp. AIU 813", "details": "oxidase reaction, borate-NaOH pH 9.0, 30 °C, pH 9.0"}, "NCCCC[C@H](N)C(=O)O": {"tested_on": "T3, NCCCC[C@H](N)C(=O)O", "T3 construct": "N-terminally His-tagged, pET15b-laao/mog, expressed in E. coli; homodimer with FAD", "test": "purified protein", "assay_type": "biochemical, Pseudomonas sp. AIU 813", "details": "100 mM potassium phosphate pH 7.0, 30 °C"}, "purified protein [5]": {"substrate": "NCCC[C@H](N)C(=O)O", "test": "purified protein", "details": "borate-NaOH pH 9.0, 30 °C"}, "purified protein [6]": {"substrate": "N=C(N)NCCC[C@H](N)C(=O)O", "test": "purified protein", "assay_type": "biochemical, Pseudomonas sp. AIU 813", "details": "borate-NaOH pH 9.0, 30 °C, pH 9.0"}, "purified protein [7]": {"substrate": "NCCCC[C@H](N)C(=O)O", "test": "purified protein", "assay_type": "biochemical, Pseudomonas sp. AIU 813", "details": "100 mM potassium phosphate pH 7.0, 30 °C, pH 7.0"}, "[8]": {"target": "the molecule itself", "test": "crystal structure; sitting-drop vapor diffusion at 20 °C, 20% PEG3350 and 0.15 M DL-malic acid pH 7.0; crystals soaked with 10 mM L-Lys, 20 mM L-Orn or 20 mM L-Arg; tetramer (two biological dimers) in the asymmetric unit"}},
  "data": [
    {"molecule": "Cc1cc2nc3c(=O)[nH]c(=O)nc-3n(C[C@H](O)[C@H](O)[C@H](O)COP(=O)(O)OP(=O)(O)OC[C@H]3O[C@@H](n4cnc5c(N)ncnc54)[C@H](O)[C@@H]3O)c2cc1C", "note": "[FAD]", "values": [
      {"measurement": "X-ray crystal structure, 2.10 Å", "setting": "L-AAO/MOG [1]", "value": "FAD and L‐Lys molecules are shown as yellow and magenta sticks"}
    ]},
    {"molecule": "N=C(N)NCCC[C@H](N)C(=O)O", "note": "[L-Arg]", "values": [
      {"measurement": "X-ray crystal structure, soaking, 2.30 Å", "setting": "L-AAO/MOG [2]", "value": "The structures of L‐AAO/MOG complexed with either L‐Lys, L‐Orn, or L‐Arg were determined"}
    ]},
    {"molecule": "NCCCC[C@H](N)C(=O)O", "note": "[L-Lys]", "values": [
      {"measurement": "X-ray crystal structure, soaking, 2.10 Å", "setting": "L-AAO/MOG [3]", "value": "electron density map for a L‐Lys molecule was clearly observed in the substrate binding pocket"}
    ]},
    {"molecule": "NCCC[C@H](N)C(=O)O", "note": "[L-Orn]", "values": [
      {"measurement": "X-ray crystal structure, soaking, 2.00 Å", "setting": "L-AAO/MOG [4]", "value": "The structures of L‐AAO/MOG complexed with either L‐Lys, L‐Orn, or L‐Arg were determined"}
    ]},
    {"molecule": "L-AAO/MOG (Pseudomonas sp. AIU 813; D238A)", "values": [
      {"measurement": "Km", "setting": "N=C(N)NCCC[C@H](N)C(=O)O", "value": "410 ± 10", "unit": "µM"},
      {"measurement": "kcat", "setting": "N=C(N)NCCC[C@H](N)C(=O)O", "value": "0.1 ± 0.02", "unit": "s⁻¹"},
      {"measurement": "kcat/Km", "setting": "N=C(N)NCCC[C@H](N)C(=O)O", "value": "240 ± 60", "unit": "M⁻¹ s⁻¹"},
      {"measurement": "Km", "setting": "NCCCC[C@H](N)C(=O)O; monooxygenase reaction", "value": "260 ± 20", "unit": "µM"},
      {"measurement": "kcat", "setting": "NCCCC[C@H](N)C(=O)O; monooxygenase reaction", "value": "2.7 ± 0.4", "unit": "s⁻¹"},
      {"measurement": "kcat/Km", "setting": "NCCCC[C@H](N)C(=O)O; monooxygenase reaction", "value": "10000 ± 1000", "unit": "M⁻¹ s⁻¹"},
      {"measurement": "Km", "setting": "NCCCC[C@H](N)C(=O)O; oxidase reaction, pH 7.0", "value": "610 ± 50", "unit": "µM"},
      {"measurement": "kcat", "setting": "NCCCC[C@H](N)C(=O)O; oxidase reaction, pH 7.0", "value": "0.5 ± 0.03", "unit": "s⁻¹"}
    ]},
    {"molecule": "L-AAO/MOG (Pseudomonas sp. AIU 813; D238E)", "values": [
      {"measurement": "Km", "setting": "NCCCC[C@H](N)C(=O)O; monooxygenase reaction", "value": "43 ± 1", "unit": "µM"},
      {"measurement": "kcat", "setting": "NCCCC[C@H](N)C(=O)O; monooxygenase reaction", "value": "8.1 ± 0.6", "unit": "s⁻¹"},
      {"measurement": "kcat/Km", "setting": "NCCCC[C@H](N)C(=O)O; monooxygenase reaction", "value": "190000 ± 10000", "unit": "M⁻¹ s⁻¹"},
      {"measurement": "Km", "setting": "NCCCC[C@H](N)C(=O)O; oxidase reaction", "value": "18 ± 6", "unit": "µM"},
      {"measurement": "kcat", "setting": "NCCCC[C@H](N)C(=O)O; oxidase reaction", "value": "2.3 ± 0.3", "unit": "s⁻¹"},
      {"measurement": "kcat/Km", "setting": "NCCCC[C@H](N)C(=O)O; oxidase reaction", "value": "130000 ± 10000", "unit": "M⁻¹ s⁻¹"}
    ]},
    {"molecule": "L-AAO/MOG (Pseudomonas sp. AIU 813; D238F)", "values": [
      {"measurement": "Km", "setting": "N=C(N)NCCC[C@H](N)C(=O)O", "value": "80 ± 18", "unit": "µM"},
      {"measurement": "kcat", "setting": "N=C(N)NCCC[C@H](N)C(=O)O", "value": "0.1 ± 0.01", "unit": "s⁻¹"},
      {"measurement": "kcat/Km", "setting": "N=C(N)NCCC[C@H](N)C(=O)O", "value": "1300 ± 100", "unit": "M⁻¹ s⁻¹"},
      {"measurement": "Km", "setting": "NCCCC[C@H](N)C(=O)O; monooxygenase reaction", "value": "72 ± 3", "unit": "µM"},
      {"measurement": "kcat", "setting": "NCCCC[C@H](N)C(=O)O; monooxygenase reaction", "value": "0.8 ± 0.04", "unit": "s⁻¹"},
      {"measurement": "kcat/Km", "setting": "NCCCC[C@H](N)C(=O)O; monooxygenase reaction", "value": "11000 ± 1000", "unit": "M⁻¹ s⁻¹"},
      {"measurement": "Km", "setting": "NCCCC[C@H](N)C(=O)O; oxidase reaction, pH 7.0", "value": "49 ± 9", "unit": "µM"},
      {"measurement": "kcat", "setting": "NCCCC[C@H](N)C(=O)O; oxidase reaction, pH 7.0", "value": "0.17 ± 0.01", "unit": "s⁻¹"},
      {"measurement": "kcat/Km", "setting": "NCCCC[C@H](N)C(=O)O; oxidase reaction, pH 7.0", "value": "3500 ± 200", "unit": "M⁻¹ s⁻¹"}
    ]},
    {"molecule": "B1", "values": [
      {"measurement": "Km", "setting": "purified protein [5]; monooxygenase reaction", "value": "33 ± 1", "unit": "µM"},
      {"measurement": "kcat", "setting": "purified protein [5]; monooxygenase reaction", "value": 6.7, "unit": "s⁻¹"},
      {"measurement": "kcat/Km", "setting": "purified protein [5]; monooxygenase reaction", "value": 200000, "unit": "M⁻¹ s⁻¹"},
      {"measurement": "Km", "setting": "purified protein [5]; oxidase reaction", "value": "22 ± 4", "unit": "µM"},
      {"measurement": "kcat", "setting": "purified protein [5]; oxidase reaction", "value": 1.5, "unit": "s⁻¹"},
      {"measurement": "kcat/Km", "setting": "purified protein [5]; oxidase reaction", "value": 68000, "unit": "M⁻¹ s⁻¹"},
      {"measurement": "Km", "setting": "purified protein [6]; monooxygenase reaction", "value": "67 ± 5", "unit": "µM"},
      {"measurement": "kcat", "setting": "purified protein [6]; monooxygenase reaction", "value": "1.6 ± 0.2", "unit": "s⁻¹"},
      {"measurement": "kcat/Km", "setting": "purified protein [6]; monooxygenase reaction", "value": "24000 ± 1000", "unit": "M⁻¹ s⁻¹"},
      {"measurement": "Km", "setting": "purified protein [6]; oxidase reaction", "value": "48 ± 1", "unit": "µM"},
      {"measurement": "kcat", "setting": "purified protein [6]; oxidase reaction", "value": "0.41 ± 0.02", "unit": "s⁻¹"},
      {"measurement": "kcat/Km", "setting": "purified protein [6]; oxidase reaction", "value": "8500 ± 650", "unit": "M⁻¹ s⁻¹"},
      {"measurement": "Km", "setting": "purified protein [7]; monooxygenase reaction", "value": "61 ± 6", "unit": "µM"},
      {"measurement": "kcat", "setting": "purified protein [7]; monooxygenase reaction", "value": "4.5 ± 0.1", "unit": "s⁻¹"},
      {"measurement": "kcat/Km", "setting": "purified protein [7]; monooxygenase reaction", "value": "74000 ± 5000", "unit": "M⁻¹ s⁻¹"},
      {"measurement": "Km", "setting": "purified protein [7]; oxidase reaction", "value": "27 ± 3", "unit": "µM"},
      {"measurement": "kcat", "setting": "purified protein [7]; oxidase reaction", "value": "0.8 ± 0.09", "unit": "s⁻¹"},
      {"measurement": "kcat/Km", "setting": "purified protein [7]; oxidase reaction", "value": "30000 ± 1000", "unit": "M⁻¹ s⁻¹"},
      {"measurement": "binding result", "setting": "[8]", "value": "binds"}
    ]}
  ]
}
